Measured values as given in the Human Domainome abundance scans (Beltran et al. 2025).
± gives the uncertainty stated by the source.

Assay: abundance fitness (aPCA) (normalised: wild type 0, dead -1); higher = more abundant; growth selection in yeast, the domain comes from the species named
Conditions: Homo sapiens

Substance | abundance fitness
SAFB-like transcription modulator E57A, Q9NWH9 | -0.085 ± 0.082
BAG family molecular chaperone regulator 3 G25W, O95817 | -0.875 ± 0.34
BAG family molecular chaperone regulator 3 P32S, O95817 | -0.054 ± 0.087
SAFB-like transcription modulator T23E, Q9NWH9 | -0.001 ± 0.034
BAG family molecular chaperone regulator 3 N50M, O95817 | -0.255 ± 0.086
BAG family molecular chaperone regulator 3 P37M, O95817 | 0.465 ± 0.12
SAFB-like transcription modulator T42S, Q9NWH9 | 0.071 ± 0.095
BAG family molecular chaperone regulator 3 P23S, O95817 | -0.864 ± 0.26
BAG family molecular chaperone regulator 3 T47M, O95817 | -0.564 ± 0.24
SAFB-like transcription modulator R37S, Q9NWH9 | -0.845 ± 0.057
SAFB-like transcription modulator L25P, Q9NWH9 | -0.718 ± 0.071
SAFB-like transcription modulator L48R, Q9NWH9 | -0.537 ± 0.043
SAFB-like transcription modulator G61R, Q9NWH9 | -0.227 ± 0.042
SAFB-like transcription modulator E58V, Q9NWH9 | -0.074 ± 0.06
SAFB-like transcription modulator E57C, Q9NWH9 | -0.192 ± 0.096
BAG family molecular chaperone regulator 3 P21E, O95817 | 0.307 ± 0.12
BAG family molecular chaperone regulator 3 D18Q, O95817 | 0.012 ± 0.19
BAG family molecular chaperone regulator 3 G58C, O95817 | -0.17 ± 0.25
SAFB-like transcription modulator L30T, Q9NWH9 | -0.936 ± 0.11
SAFB-like transcription modulator T42A, Q9NWH9 | -0.045 ± 0.092
SAFB-like transcription modulator I56W, Q9NWH9 | -0.561 ± 0.069
SAFB-like transcription modulator E57V, Q9NWH9 | -0.064 ± 0.063
SAFB-like transcription modulator L48V, Q9NWH9 | -0.607 ± 0.054
BAG family molecular chaperone regulator 3 V40W, O95817 | -0.468 ± 0.21
SAFB-like transcription modulator I49L, Q9NWH9 | -0.075 ± 0.045

Substance | abundance fitness
BAG family molecular chaperone regulator 3 D51W, O95817 | -1.18 ± 0.23
SAFB-like transcription modulator I22Y, Q9NWH9 | -0.531 ± 0.085
SAFB-like transcription modulator S32Y, Q9NWH9 | -0.173 ± 0.09
BAG family molecular chaperone regulator 3 G15E, O95817 | 1 ± 0.094
SAFB-like transcription modulator I56N, Q9NWH9 | -0.951 ± 0.25
SAFB-like transcription modulator P63N, Q9NWH9 | -0.422 ± 0.045
SAFB-like transcription modulator R37Q, Q9NWH9 | -0.575 ± 0.13
SAFB-like transcription modulator I28W, Q9NWH9 | -0.365 ± 0.11
SAFB-like transcription modulator T23D, Q9NWH9 | -0.093 ± 0.041
BAG family molecular chaperone regulator 3 G15H, O95817 | 1.18 ± 0.16
SAFB-like transcription modulator L34N, Q9NWH9 | -0.964 ± 0.45
SAFB-like transcription modulator T23G, Q9NWH9 | -0.072 ± 0.034
SAFB-like transcription modulator E59F, Q9NWH9 | -0.924 ± 0.07
BAG family molecular chaperone regulator 3 G15T, O95817 | 0.856 ± 0.082
BAG family molecular chaperone regulator 3 T34P, O95817 | -0.688 ± 0.14
BAG family molecular chaperone regulator 3 E27K, O95817 | -0.42 ± 0.23
BAG family molecular chaperone regulator 3 H42T, O95817 | -0.55 ± 0.21
BAG family molecular chaperone regulator 3 E57T, O95817 | -0.118 ± 0.21
BAG family molecular chaperone regulator 3 N50H, O95817 | -0.166 ± 0.19
SAFB-like transcription modulator L39F, Q9NWH9 | -0.409 ± 0.077
SAFB-like transcription modulator N38Q, Q9NWH9 | -0.04 ± 0.046
SAFB-like transcription modulator D29Q, Q9NWH9 | -0.084 ± 0.07
SAFB-like transcription modulator K21W, Q9NWH9 | -0.982 ± 0.12
BAG family molecular chaperone regulator 3 E27D, O95817 | -0.472 ± 0.35
BAG family molecular chaperone regulator 3 N16P, O95817 | 0.153 ± 0.14

Substance | abundance fitness
SAFB-like transcription modulator D29K, Q9NWH9 | -1.06 ± 0.33
BAG family molecular chaperone regulator 3 I28N, O95817 | 0.206 ± 0.3
BAG family molecular chaperone regulator 3 P55W, O95817 | -0.508 ± 0.28
SAFB-like transcription modulator V47Q, Q9NWH9 | 0.019 ± 0.047
SAFB-like transcription modulator G60A, Q9NWH9 | -0.317 ± 0.047
SAFB-like transcription modulator E59G, Q9NWH9 | -0.226 ± 0.044
SAFB-like transcription modulator D24H, Q9NWH9 | -0.145 ± 0.034
BAG family molecular chaperone regulator 3 F39G, O95817 | -0.436 ± 0.067
BAG family molecular chaperone regulator 3 R45V, O95817 | -0.692 ± 0.091
SAFB-like transcription modulator K21N, Q9NWH9 | -0.491 ± 0.094
BAG family molecular chaperone regulator 3 E27P, O95817 | -0.836 ± 0.39
BAG family molecular chaperone regulator 3 V12G, O95817 | -0.443 ± 0.069
SAFB-like transcription modulator D64C, Q9NWH9 | -0.166 ± 0.05
BAG family molecular chaperone regulator 3 D18F, O95817 | -0.343 ± 0.23
BAG family molecular chaperone regulator 3 R45N, O95817 | 0.54 ± 0.18
SAFB-like transcription modulator E67L, Q9NWH9 | -0.134 ± 0.035
SAFB-like transcription modulator V44L, Q9NWH9 | -0.122 ± 0.038
BAG family molecular chaperone regulator 3 N43S, O95817 | 0.004 ± 0.2
BAG family molecular chaperone regulator 3 E27C, O95817 | -0.789 ± 0.39
SAFB-like transcription modulator L52P, Q9NWH9 | -0.467 ± 0.12
SAFB-like transcription modulator E33V, Q9NWH9 | -0.917 ± 0.094
SAFB-like transcription modulator E67I, Q9NWH9 | 0.017 ± 0.08
BAG family molecular chaperone regulator 3 D51Y, O95817 | -0.45 ± 0.4
BAG family molecular chaperone regulator 3 A13D, O95817 | 0.279 ± 0.07
SAFB-like transcription modulator K45D, Q9NWH9 | -0.208 ± 0.037

Substance | abundance fitness
SAFB-like transcription modulator K35C, Q9NWH9 | -0.528 ± 0.23
SAFB-like transcription modulator I41N, Q9NWH9 | -0.68 ± 0.2
SAFB-like transcription modulator S50E, Q9NWH9 | 0.087 ± 0.075
BAG family molecular chaperone regulator 3 S56C, O95817 | -0.13 ± 0.18
BAG family molecular chaperone regulator 3 G58V, O95817 | -0.129 ± 0.064
BAG family molecular chaperone regulator 3 T46A, O95817 | -0.687 ± 0.32
BAG family molecular chaperone regulator 3 N43Y, O95817 | -0.366 ± 0.4
BAG family molecular chaperone regulator 3 Q33G, O95817 | 0.128 ± 0.059
BAG family molecular chaperone regulator 3 D41K, O95817 | -1.05 ± 0.41
BAG family molecular chaperone regulator 3 S44W, O95817 | -0.86 ± 0.17
BAG family molecular chaperone regulator 3 S56I, O95817 | 0.304 ± 0.1
SAFB-like transcription modulator Q54S, Q9NWH9 | -0.526 ± 0.1
BAG family molecular chaperone regulator 3 D51Q, O95817 | -0.602 ± 0.42
BAG family molecular chaperone regulator 3 N16C, O95817 | 0.113 ± 0.14
SAFB-like transcription modulator E58R, Q9NWH9 | 0.028 ± 0.034
SAFB-like transcription modulator D62A, Q9NWH9 | -0.386 ± 0.045
BAG family molecular chaperone regulator 3 V12E, O95817 | -0.594 ± 0.26
SAFB-like transcription modulator R37K, Q9NWH9 | -0.283 ± 0.098
SAFB-like transcription modulator I22R, Q9NWH9 | -0.743 ± 0.048
BAG family molecular chaperone regulator 3 W26S, O95817 | -0.381 ± 0.12
SAFB-like transcription modulator E33S, Q9NWH9 | -0.353 ± 0.078
BAG family molecular chaperone regulator 3 F39Y, O95817 | -0.244 ± 0.24
